Data set [1] concerns the molecule itself. The data set is described as follows: high-speed atomic force microscopy; ring formation of purified FlhAC monomer (2 μM) in 50 mM Tris-HCl pH 8.0, 100 mM NaCl placed on mica, room temperature; imaged in 10 mM Tris-HCl pH 6.8.
Data set [2] deals with T1, FlgK (Salmonella enterica serovar Typhimurium, UniProt P0A1J5 1-553).
T1 construct: FlgK, filament-type export substrate, Salmonella enterica serovar Typhimurium (plasmid pMKGK2, pTrc99A); source: E. coli BL21 Star (DE3), purified (Q-Sepharose anion exchange)
T1 sequence: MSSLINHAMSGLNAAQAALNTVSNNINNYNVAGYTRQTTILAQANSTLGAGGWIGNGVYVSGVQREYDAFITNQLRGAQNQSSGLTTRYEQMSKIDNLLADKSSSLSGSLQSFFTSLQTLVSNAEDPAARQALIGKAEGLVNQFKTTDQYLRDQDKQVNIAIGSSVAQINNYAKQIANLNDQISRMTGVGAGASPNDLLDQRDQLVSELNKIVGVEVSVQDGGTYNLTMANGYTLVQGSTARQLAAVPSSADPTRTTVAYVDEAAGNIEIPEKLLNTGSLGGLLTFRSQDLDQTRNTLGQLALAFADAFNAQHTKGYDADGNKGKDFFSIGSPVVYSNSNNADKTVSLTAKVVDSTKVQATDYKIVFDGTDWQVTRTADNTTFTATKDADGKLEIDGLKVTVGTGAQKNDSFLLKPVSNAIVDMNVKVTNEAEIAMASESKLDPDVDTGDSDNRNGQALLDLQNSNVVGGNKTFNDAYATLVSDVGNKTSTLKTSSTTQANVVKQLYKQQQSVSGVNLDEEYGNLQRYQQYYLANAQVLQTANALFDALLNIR
The data set is described as follows: pull-down; GST affinity chromatography: purified His-FlhAC mixed with purified GST-FlgN/FlgK complex or GST-FliJ, dialyzed overnight against PBS pH 7.4 at 4 °C, loaded on glutathione Sepharose 4B, eluted with 10 mM reduced glutathione; SDS-PAGE with CBB staining. As to conditions: both partners purified.

B1: His-FlhAC with the Y369A/R370A/L371A/I372V (AAAV) mutation (domain or fragment)
chain: AGILIMVINVVGGLLVGVLQHGMSIGSAAESYTLLTIGDGLVAQIPALVISTAAGVIVTRVSTDQDVGEQMVGQLFSNPRVMLLAAAVLGLLGMVPGMPNLVFLLFTAALLGLAWWLRGREEKAPEEPQPVKMPENNSVVEATWNDVQLEDSLGMEVGAAAVPMVDFQQDGELLGRIRSIRKKFAQDMGFLPPVVHIRDNMDLQPARYRILMKGVEIGSGDAYPGRWLAINPGTAAGTLPGEKTVDPAFGLDAIWIESALKEQAQIQGFTVVEASTVVATHLNHLIGQFSAELFGRQEAQQLLDRVSQEMPKLTEDLVPGVVTLTTLHKVLQNLLAEKVPIRDMRTILETLAEHAPLQSDPHELTAVVRVALGRAITQQWFPGNEEVQVIGLDTALERLLLQALQGGGGLEPGLADRLLAQTQEALSRQEMLGAPPVLLVNHALRPLLSRFLRRSLPQLVVLSNLELSDNRHIRMTATIGGK
notes: Intragenic suppressor (A372V) of the AAAA mutant; also called FlhA_(C-AAAV); His-FlhA_(C-AAAV); source: E. coli BL21 Star (DE3), purified (Ni-NTA, SEC); not shown: His tag, N-terminal, kept
Turning to B1, the “stoichiometry N” value in data set [1] is 9.

B2: GST-FlgN (natural protein)
chain: MTRLSEILDQMTTVLNDLKTVMDAEQQQLSVGQINGSQLQRITEEKSSLLATLDYLEQQRRLEQNAQRSANDDIAERWQAITEKTQHLRDLNQHNGWLLEGQIERNQQALEVLKPHQEPTLYGADGQTSVSHRGGKKISI
notes: FlgN, flagellar export chaperone, Salmonella enterica serovar Typhimurium (plasmid pMMGN101, pGEX-6p-1); source: Salmonella SJW1368, purified (glutathione Sepharose 4B)
Consider B2, for which the binding result in data set [2] is reported as “binds”.

As usually defined, the stoichiometry N is a count of units in the complex or per binding partner.

For the origin of these results see article PMC10965912, “FliH and FliI help FlhA bring strict order to flagellar protein export in Salmonella” (Communications Biology, 2024).
